Source: publication PMC3392456
Where two headings read alike, the source gives them in different places.

What was measured:
[1] = molecular target: S. pombe Mre11 catalytic domain, SpMre11_(15–413) (S. pombe); test: crystal structure
[2] = molecular target: S. pombe Mre11 catalytic domain, SpMre11_(15–413) (S. pombe); test: crystal structure; remark: listed apart in the source
[3] = molecular target: SpMre11^cd R85A (S. pombe)
[4] = molecular target: S. pombe Mre11 catalytic domain, SpMre11_(15–413) (S. pombe); test: crystal structure; remark: listed apart in the source

Molecule: S. pombe Mre11 catalytic domain, SpMre11_(15–413) (domain or fragment)
- stoichiometry N [1]: 2
- stoichiometry N [2]: 2

Molecule: SpMre11^cd R85A (domain or fragment)
- stoichiometry N [3]: 2

B1: S. pombe Nbs1 Mre11 interacting region, residues 474–531 (domain or fragment)
chain: ESEDDKAFEENRRLRNLGSVEYIRIMSSEKSNANSRHTSKYYSGRKNFKKFQKKASQK
- stoichiometry N (Nbs1 per Mre11 (2:2)) [4]: 1
